The supplement of paper PMC12338614
± gives the uncertainty stated by the source.

B1: library; numbered along this chain (parent)
chain: MEVVDPQQLGMFTEGELMSVGMDTFIHRIDSTEVIYQPRRKRAKLIGKYLMGDLLGEGSYGKVKEVLDSETLCRRAVKILKKKKLRRIPNGEANVKKEIQLLRRLRHKNVIQLVDVLYNEEKQKMYMVMEYCVCGMQEMLDSVPEKRFPVCQAHGYFCQLIDGLEYLHSQGIVHKDIKPGNLLLTTGGTLKISDLGVAEALHPFAADDTCRTSQGSPAFQPPEIANGLDTFSGFKVDIWSAGVTLYNITTGLYPFEGDNIYKLFENIGKGSYAIPGDCGPPLSDLLKGMLEYEPAKRFSIRQIRQHSWFRKKHPPAEAPVPIPPSPDTKDRWRSMTVVPYLEDLHGADEDEDLFDIEDDIIYTQDFTVPGQVPEEEASHNGQRRGLPKAVCMNGTEAAQLSTKSRAEGRAPNPARKACSASSKIRRLSACKQQ

Variants of: B1
Assay: STK11 functional score (HeLa growth suppression), rescaled enrichment; synonymous median = 1, nonsense median = 0 (normalised score)
Conditions: with HeLa; variant type: missense
Outline: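 The functional score takes the post/pre-selection log ratio, corrects it to wild type, rescales it to synonymous and nonsense medians, and merges it over codons and replicate transfections, with error from bootstrapping. Counts came from tiled gDNA amplicons sequenced on NextSeq (~2 million reads per tile). The libraries were POPCode codon-randomised, codon-optimised STK11 integrated by Bxb1 at an AAVS1 landing pad in HeLa, three regions with three transfections each.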

| Variant | STK11 functional score |
| --- | --- |
| MEVVDPQQLGMFTEGELMSVGMDTFIHRIDSTEVIYQPRRKRAKLIGKYLMGDLLGEGSYGKVKEVLDSETLCRRAVKILKKKKLRRIPNGEANVKKEIQLLRRLRHKNVIQLVDVLYNEEKQKMYMVMEYCVCGMQEMLDSVPEKRFPVCQAHGYFCQLIDGLEYLHSQGIVHKDIKPGNLLQTTGGTLKISDLGVAEALHPFAADDTCRTSQGSPAFQPPEIANGLDTFSGFKVDIWSAGVTLYNITTGLYPFEGDNIYKLFENIGKGSYAIPGDCGPPLSDLLKGMLEYEPAKRFSIRQIRQHSWFRKKHPPAEAPVPIPPSPDTKDRWRSMTVVPYLEDLHGADEDEDLFDIEDDIIYTQDFTVPGQVPEEEASHNGQRRGLPKAVCMNGTEAAQLSTKSRAEGRAPNPARKACSASSKIRRLSACKQQ [L184Q] | 0.906 ± 0.2 |
| MEVVDPQQLGMFTEGELMSVGMDTFIHRIDSTEVIYQPRRKRAKLIGKYLMGDLLGEGSYGKVKEVLDSETLCRRAVKILKKKKLRRIPNGEANVKKEIQLLRRLRHKNVIQLVDVLYNEEKQKMYMVMEYCVCGMQEMLDSVPEKRFPVCQAHGYFCQLIDGLEYLHSQGIVHKDIKPGNLLPTTGGTLKISDLGVAEALHPFAADDTCRTSQGSPAFQPPEIANGLDTFSGFKVDIWSAGVTLYNITTGLYPFEGDNIYKLFENIGKGSYAIPGDCGPPLSDLLKGMLEYEPAKRFSIRQIRQHSWFRKKHPPAEAPVPIPPSPDTKDRWRSMTVVPYLEDLHGADEDEDLFDIEDDIIYTQDFTVPGQVPEEEASHNGQRRGLPKAVCMNGTEAAQLSTKSRAEGRAPNPARKACSASSKIRRLSACKQQ [L184P] | 0.189 ± 0.18 |
| MEVVDPQQLGMFTEGELMSVGMDTFIHRIDSTEVIYQPRRKRAKLIGKYLMGDLLGEGSYGKVKEVLDSETLCRRAVKILKKKKLRRIPNGEANVKKEIQLLRRLRHKNVIQLVDVLYNEEKQKMYMVMEYCVCGMQEMLDSVPEKRFPVCQAHGYFCQLIDGLEYLHSQGIVHKDIKPGNLLNTTGGTLKISDLGVAEALHPFAADDTCRTSQGSPAFQPPEIANGLDTFSGFKVDIWSAGVTLYNITTGLYPFEGDNIYKLFENIGKGSYAIPGDCGPPLSDLLKGMLEYEPAKRFSIRQIRQHSWFRKKHPPAEAPVPIPPSPDTKDRWRSMTVVPYLEDLHGADEDEDLFDIEDDIIYTQDFTVPGQVPEEEASHNGQRRGLPKAVCMNGTEAAQLSTKSRAEGRAPNPARKACSASSKIRRLSACKQQ [L184N] | 0.425 ± 0.35 |
| MEVVDPQQLGMFTEGELMSVGMDTFIHRIDSTEVIYQPRRKRAKLIGKYLMGDLLGEGSYGKVKEVLDSETLCRRAVKILKKKKLRRIPNGEANVKKEIQLLRRLRHKNVIQLVDVLYNEEKQKMYMVMEYCVCGMQEMLDSVPEKRFPVCQAHGYFCQLIDGLEYLHSQGIVHKDIKPGNLLTTTGGTLKISDLGVAEALHPFAADDTCRTSQGSPAFQPPEIANGLDTFSGFKVDIWSAGVTLYNITTGLYPFEGDNIYKLFENIGKGSYAIPGDCGPPLSDLLKGMLEYEPAKRFSIRQIRQHSWFRKKHPPAEAPVPIPPSPDTKDRWRSMTVVPYLEDLHGADEDEDLFDIEDDIIYTQDFTVPGQVPEEEASHNGQRRGLPKAVCMNGTEAAQLSTKSRAEGRAPNPARKACSASSKIRRLSACKQQ [L184T] | 1.49 ± 0.24 |
| MEVVDPQQLGMFTEGELMSVGMDTFIHRIDSTEVIYQPRRKRAKLIGKYLMGDLLGEGSYGKVKEVLDSETLCRRAVKILKKKKLRRIPNGEANVKKEIQLLRRLRHKNVIQLVDVLYNEEKQKMYMVMEYCVCGMQEMLDSVPEKRFPVCQAHGYFCQLIDGLEYLHSQGIVHKDIKPGNLLRTTGGTLKISDLGVAEALHPFAADDTCRTSQGSPAFQPPEIANGLDTFSGFKVDIWSAGVTLYNITTGLYPFEGDNIYKLFENIGKGSYAIPGDCGPPLSDLLKGMLEYEPAKRFSIRQIRQHSWFRKKHPPAEAPVPIPPSPDTKDRWRSMTVVPYLEDLHGADEDEDLFDIEDDIIYTQDFTVPGQVPEEEASHNGQRRGLPKAVCMNGTEAAQLSTKSRAEGRAPNPARKACSASSKIRRLSACKQQ [L184R] | 0.329 ± 0.17 |
| MEVVDPQQLGMFTEGELMSVGMDTFIHRIDSTEVIYQPRRKRAKLIGKYLMGDLLGEGSYGKVKEVLDSETLCRRAVKILKKKKLRRIPNGEANVKKEIQLLRRLRHKNVIQLVDVLYNEEKQKMYMVMEYCVCGMQEMLDSVPEKRFPVCQAHGYFCQLIDGLEYLHSQGIVHKDIKPGNLLSTTGGTLKISDLGVAEALHPFAADDTCRTSQGSPAFQPPEIANGLDTFSGFKVDIWSAGVTLYNITTGLYPFEGDNIYKLFENIGKGSYAIPGDCGPPLSDLLKGMLEYEPAKRFSIRQIRQHSWFRKKHPPAEAPVPIPPSPDTKDRWRSMTVVPYLEDLHGADEDEDLFDIEDDIIYTQDFTVPGQVPEEEASHNGQRRGLPKAVCMNGTEAAQLSTKSRAEGRAPNPARKACSASSKIRRLSACKQQ [L184S] | 0.61 ± 0.13 |
| MEVVDPQQLGMFTEGELMSVGMDTFIHRIDSTEVIYQPRRKRAKLIGKYLMGDLLGEGSYGKVKEVLDSETLCRRAVKILKKKKLRRIPNGEANVKKEIQLLRRLRHKNVIQLVDVLYNEEKQKMYMVMEYCVCGMQEMLDSVPEKRFPVCQAHGYFCQLIDGLEYLHSQGIVHKDIKPGNLLVTTGGTLKISDLGVAEALHPFAADDTCRTSQGSPAFQPPEIANGLDTFSGFKVDIWSAGVTLYNITTGLYPFEGDNIYKLFENIGKGSYAIPGDCGPPLSDLLKGMLEYEPAKRFSIRQIRQHSWFRKKHPPAEAPVPIPPSPDTKDRWRSMTVVPYLEDLHGADEDEDLFDIEDDIIYTQDFTVPGQVPEEEASHNGQRRGLPKAVCMNGTEAAQLSTKSRAEGRAPNPARKACSASSKIRRLSACKQQ [L184V] | 1.01 ± 0.21 |
